By Km is commonly meant the concentration of substrate that gives half-maximal velocity. The kcat is the maximal rate divided by the concentration of active sites. In general, kcat/Km refers to the second-order rate constant that governs catalysis at low substrate concentration. The Vmax is the rate approached at saturating substrate.

The results in this text go back to paper PMC9304066, “H2S biogenesis by cystathionine beta-synthase: mechanism of inhibition by aminooxyacetic acid and unexpected role of serine” (Cellular and Molecular Life Sciences: CMLS, 2022).

What all share (type): biochemical, Saccharomyces cerevisiae
Substrate in series [1]: N[C@@H](CS)C(=O)O
Description: CBL-LDH coupled-coupled CBS assay, tScCBS. The conditions noted are these: other: tScCBS, substrate varied with 2 mM Hcy, pH 8.9. As for the experimental part:
(§1) CBS coupled-coupled assay. CBS canonical activity utilizing Ser and Hcy was determined using cystathionine beta-lyase (CBL) and lactate-dehydrogenase (LDH) coupled-coupled assay as described previously with a few modifications. Native L-LDH from rabbit muscle was purchased from Sigma (catalog no. L2500) and recombinant CBL was purchased from Creative Enzymes (catalog no. NATE-1146). In a final volume of 150 µL, the reaction mixture contained 50 mM Tris–HCl pH 8.9, 20 µM PLP, 500 µM NADH, 1.3 µM LDH, 0.1 µM CBL, 0–20 mM Ser (or 0–50 mM Cys) and 500 ng of tScCBS or HsCBS. Assays with HsCBS were carried out in the absence or presence of 500 µM CBS allosteric activator S-adenosylmethionine (SAM). The reaction was triggered by the addition of 2 mM Hcy and the oxidation of NADH to NAD^+ was followed by monitoring the decrease in absorbance at 340 nm over time (ε340 = 6220 M^−1.cm^−1). […] All measurements were performed in triplicates using Tecan Infinite 200 PRO microplate reader. Kinetic data were analyzed using GraphPad Prism software.

Substrate in series [2]: N[C@@H](CO)C(=O)O
The series is described as follows: CBL-LDH coupled-coupled CBS assay, tScCBS. The conditions noted are these: other: tScCBS, substrate varied with 2 mM Hcy, pH 8.9. The protocol:
as §1

Substrate in series [3]: N[C@@H](CS)C(=O)O
Description: CBS H2S production assay (AzMC fluorometric), tScCBS. The conditions noted are these: other: tScCBS, Cys + Hcy, pH 8.6, 37.0 °C. As for the experimental part:
CBS H2S production assay. H2S-producing activity of CBS, utilizing Cys and Hcy, was determined using a fluorometric assay employing the H2S-selective fluorescent probe 7-azido-4-methylcoumarin (AzMC) as described previously. The reaction mixture in a total volume of 200 µL contained 50 mM Tris–HCl pH 8.6, 5 μM PLP, 2 mM Hcy, 10 μM AzMC and 500 ng tScCBS or HsCBS. The plate was incubated for 10 min at 37°C and the enzymatic activity was triggered by adding 0–50 mM Cys. The fluorescence of the mixtures at 450 nm (excited at 365 nm) was followed for 2 h at 37°C. All measurements were performed in triplicates using Tecan Infinite 200 PRO microplate reader. Kinetic data were analyzed using GraphPad Prism software.

B1: tScCBS (Saccharomyces cerevisiae S288C) (protein)
chain: MTKSEQQADSRHNVIDLVGNTPLIALKKLPKALGIKPQIYAKLELYNPGGSIKDRIAKSMVEEAEASGRIHPSRSTLIEPTSGNTGIGLALIGAIKGYRTIITLPEKMSNEKVSVLKALGAEIIRTPTAAAWDSPESHIGVAKKLEKEIPGAVILDQYNNMMNPEAHYFGTGREIQRQLEDLNLFDNLRAVVAGAGTGGTISGISKYLKEQNDKIQIVGADPFGSILAQPENLNKTDITDYKVEGIGYDFVPQVLDRKLIDVWYKTDDKPSFKYARQLISNEGVLVGGSSGSAFTAVVKYCEDHPELTEDDVIVAIFPDSIRSYLTKFVDDEWLKKNNLWDDDVL
notes: 6xHis (C); made in house
For B1, in series [1], the Km was 2500 ± 200 µM, the catalytic constant (kcat) amounted to 1.7 ± 0.1 s⁻¹ and the kcat/Km came out at 690 M⁻¹ s⁻¹. In series [2], the Michaelis constant (Km) was found to be 2000 ± 400 µM, the Vmax was found to be 4.18 µmol/min/mg, the turnover number (kcat) is 2.7 ± 0.1 s⁻¹ and the specificity constant (kcat/Km) came out at 1340 M⁻¹ s⁻¹. In addition, in series [3], the Michaelis constant (Km) is 6700 ± 1500 µM, the kcat worked out at 3.4 ± 0.3 s⁻¹ and the kcat/Km was determined as 510 M⁻¹ s⁻¹.
